# Measured values: IntAct's records for PubMed 19684601
# B1: Myocyte-specific enhancer factor 2A (Homo sapiens), Q02078-1 (parent)
# chain: MGRKKIQITRIMDERNRQVTFTKRKFGLMKKAYELSVLCDCEIALIIFNSSNKLFQYASTDMDKVLLKYTEYNEPHESRTNSDIVEALNKKEHRGCDSPDPDTSYVLTPHTEEKYKKINEEFDNMMRNHKIAPGLPPQNFSMSVTVPVTSPNALSYTNPGSSLVSPSLAASSTLTDSSMLSPPQTTLHRNVSPGAPQRPPSTGNAGGMLSTTDLTVPNGAGSSPVGNGFVNSRASPNLIGATGANSLGKVMPTKSPPPPGGGNLGMNSRKPDLRVVIPPSSKGMMPPLSEEEELELNTQRISSSQATQPLATPVVSVTTPSLPPQGLVYSAMPTAYNTDYSLTSADLSALQGFNSPGMLSLGQVSAWQQHHLGQAALSSLVAGGQLSQGSNLSINTNQNISIKSEPISPPRDRMTPSGFQQQQQQQQQQQPPPPPQPQPQPPQPQPRQEMGRSPVDSLSSSSSSYDGSDREDPRGDFHSPIVLGRPPNTEDRESPSVKRMRMDAWVT
# Variants of: B1
# Conditions: with sumo2_human SUMO2, P61956
# Chain of sumo2_human SUMO2, P61956 (P61956 whole entry): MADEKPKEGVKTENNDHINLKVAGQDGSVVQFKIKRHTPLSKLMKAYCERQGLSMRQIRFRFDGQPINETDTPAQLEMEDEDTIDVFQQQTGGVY
row,effect of a mutation on the interaction,Variant
1,disrupting interaction,MGRKKIQITRIMDERNRQVTFTKRKFGLMKKAYELSVLCDCEIALIIFNSSNKLFQYASTDMDKVLLKYTEYNEPHESRTNSDIVEALNKKEHRGCDSPDPDTSYVLTPHTEEKYKKINEEFDNMMRNHKIAPGLPPQNFSMSVTVPVTSPNALSYTNPGSSLVSPSLAASSTLTDSSMLSPPQTTLHRNVSPGAPQRPPSTGNAGGMLSTTDLTVPNGAGSSPVGNGFVNSRASPNLIGATGANSLGKVMPTKSPPPPGGGNLGMNSRKPDLRVVIPPSSKGMMPPLSEEEELELNTQRISSSQATQPLATPVVSVTTPSLPPQGLVYSAMPTAYNTDYSLTSADLSALQGFNSPGMLSLGQVSAWQQHHLGQAALSSLVAGGQLSQGSNLSINTNQNISIRSEPISPPRDRMTPSGFQQQQQQQQQQQPPPPPQPQPQPPQPQPRQEMGRSPVDSLSSSSSSYDGSDREDPRGDFHSPIVLGRPPNTEDRESPSVKRMRMDAWVT [K403R]
2,disrupting interaction,MGRKKIQITRIMDERNRQVTFTKRKFGLMKKAYELSVLCDCEIALIIFNSSNKLFQYASTDMDKVLLKYTEYNEPHESRTNSDIVEALNKKEHRGCDSPDPDTSYVLTPHTEEKYKKINEEFDNMMRNHKIAPGLPPQNFSMSVTVPVTSPNALSYTNPGSSLVSPSLAASSTLTDSSMLSPPQTTLHRNVSPGAPQRPPSTGNAGGMLSTTDLTVPNGAGSSPVGNGFVNSRASPNLIGATGANSLGKVMPTKSPPPPGGGNLGMNSRKPDLRVVIPPSSKGMMPPLSEEEELELNTQRISSSQATQPLATPVVSVTTPSLPPQGLVYSAMPTAYNTDYSLTSADLSALQGFNSPGMLSLGQVSAWQQHHLGQAALSSLVAGGQLSQGSNLSINTNQNISIKSEPIAPPRDRMTPSGFQQQQQQQQQQQPPPPPQPQPQPPQPQPRQEMGRSPVDSLSSSSSSYDGSDREDPRGDFHSPIVLGRPPNTEDRESPSVKRMRMDAWVT [S408A]
